Target: Clover-SNAP-25-mRuby2 FRET sensor (UniProt P60880)
Chain of UniProt P60880 (P60880 whole entry, looked up): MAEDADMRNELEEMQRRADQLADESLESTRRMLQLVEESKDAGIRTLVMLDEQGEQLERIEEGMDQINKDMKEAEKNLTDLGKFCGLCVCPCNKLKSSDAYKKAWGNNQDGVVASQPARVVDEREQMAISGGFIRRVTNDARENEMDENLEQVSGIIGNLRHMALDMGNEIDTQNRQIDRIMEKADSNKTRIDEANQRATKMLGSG

For “WT tALC (truncated wild-type BoNT/A-LC, residues 1-424)”, the % activity relative to WT tALC was 100% and the “dynamic range in FRET upon SNAP-25 cleavage” value was 6-fold emission ratio in 30 minutes.
